Reference: the supplement of paper PMC9112550, “Optimization of the antimicrobial peptide Bac7 by deep mutational scanning” (BMC Biology, 2022)

System: Escherichia coli TOP10
Assay: shrunken log2 fold change of peptide-encoding DNA abundance (4.5 h post-induction vs induction); higher = less antimicrobial activity (less host growth inhibition)
Conditions: time post-induction: 4.5 h; library: site-saturation at positions 5, 18, 19, 20
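Note: peptides expressed intracellularly from a pBAD plasmid library in pooled LB shake-flask culture, induced with 0.3% L-arabinose, DNA abundance read by NGS, three biological replicates, DESeq2 with apeglm shrinkage.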

| Sequence | shrunken log2 fold change |
| --- | --- |
| RRIRNRPPRLPRPRPRPDLRPRP | -0.105 |
| RRIRYRPPRLPRPRPRPPTAPRP | -0.111 |
| RRIRKRPPRLPRPRPRPVLKPRP | 0.185 |
| RRIRYRPPRLPRPRPRPYIDPRP | -0.103 |
| RRIRIRPPRLPRPRPRPSTCPRP | -0.548 |
| RRIRFRPPRLPRPRPRPICAPRP | 0.0631 |
| RRIRTRPPRLPRPRPRPANLPRP | -0.0546 |
| RRIRDRPPRLPRPRPRPHSKPRP | -0.456 |
| RRIRVRPPRLPRPRPRPTMFPRP | -0.158 |
| RRIRVRPPRLPRPRPRPPNKPRP | -0.0216 |
| RRIRSRPPRLPRPRPRPKGSPRP | 0.0118 |
| RRIRFRPPRLPRPRPRPFDQPRP | -0.291 |
| RRIRDRPPRLPRPRPRPPNQPRP | 0.317 |
| RRIRWRPPRLPRPRPRPAVDPRP | 0.174 |
| RRIRQRPPRLPRPRPRPRQRPRP | 0.245 |
| RRIRWRPPRLPRPRPRPCPVPRP | -0.249 |
| RRIRGRPPRLPRPRPRPGWEPRP | 0.506 |
| RRIRARPPRLPRPRPRPDSDPRP | -0.0357 |
| RRIRGRPPRLPRPRPRPITQPRP | -0.0614 |
| RRIRLRPPRLPRPRPRPDLEPRP | 0.0992 |
| RRIRKRPPRLPRPRPRPESNPRP | 1.13 |
| RRIRKRPPRLPRPRPRPMIEPRP | 0.0881 |

| Sequence | shrunken log2 fold change |
| --- | --- |
| RRIRWRPPRLPRPRPRPNVIPRP | -0.161 |
| RRIRCRPPRLPRPRPRPTVGPRP | 0.224 |
| RRIRFRPPRLPRPRPRPIRDPRP | 0.0144 |
| RRIRMRPPRLPRPRPRPVHTPRP | 0.213 |
| RRIRCRPPRLPRPRPRPVVFPRP | -0.123 |
| RRIRMRPPRLPRPRPRPVTIPRP | -0.0206 |
| RRIRTRPPRLPRPRPRPQEWPRP | -0.0128 |
| RRIRCRPPRLPRPRPRPTGKPRP | 0.355 |
| RRIRARPPRLPRPRPRPYYRPRP | -0.183 |
| RRIRARPPRLPRPRPRPRVEPRP | 0.187 |
| RRIRGRPPRLPRPRPRPYQHPRP | -0.376 |
| RRIRFRPPRLPRPRPRPPSSPRP | 0.208 |
| RRIRQRPPRLPRPRPRPEHMPRP | -0.0877 |
| RRIRTRPPRLPRPRPRPTVVPRP | 0.0732 |
| RRIRMRPPRLPRPRPRPVTHPRP | 0.0493 |
| RRIRKRPPRLPRPRPRPTNPPRP | 0.155 |
| RRIRERPPRLPRPRPRPAHFPRP | 0.0793 |
| RRIRSRPPRLPRPRPRPIRIPRP | -0.405 |
| RRIRSRPPRLPRPRPRPHADPRP | 0.121 |
| RRIRMRPPRLPRPRPRPAPLPRP | 0.541 |
| RRIRWRPPRLPRPRPRPMPIPRP | 0.0953 |
| RRIRPRPPRLPRPRPRPCAFPRP | -0.148 |

| Sequence | shrunken log2 fold change |
| --- | --- |
| RRIRCRPPRLPRPRPRPCFVPRP | -0.235 |
| RRIRLRPPRLPRPRPRPPDRPRP | 0.467 |
| RRIRQRPPRLPRPRPRPMTYPRP | -0.0223 |
| RRIRMRPPRLPRPRPRPNVPPRP | 0.0131 |
| RRIRRRPPRLPRPRPRPGNWPRP | 0.393 |
| RRIRQRPPRLPRPRPRPHHFPRP | -0.0176 |
| RRIRQRPPRLPRPRPRPNVPPRP | -0.0402 |
| RRIRDRPPRLPRPRPRPCGCPRP | 0.317 |
| RRIRARPPRLPRPRPRPGMDPRP | 0.543 |
| RRIRQRPPRLPRPRPRPFKYPRP | -0.0224 |
| RRIRTRPPRLPRPRPRPLIAPRP | 0.112 |
| RRIRVRPPRLPRPRPRPWGEPRP | 0.136 |
| RRIRYRPPRLPRPRPRPNVRPRP | -0.0227 |
| RRIRKRPPRLPRPRPRPTPWPRP | 0.798 |
| RRIRKRPPRLPRPRPRPQSVPRP | 0.139 |
| RRIRLRPPRLPRPRPRPSDTPRP | -0.142 |
| RRIRPRPPRLPRPRPRPGMWPRP | 0.303 |
| RRIRLRPPRLPRPRPRPGEAPRP | 0.214 |
| RRIRCRPPRLPRPRPRPKREPRP | 0.636 |
| RRIRSRPPRLPRPRPRPFGWPRP | 0.0625 |
| RRIRMRPPRLPRPRPRPQCGPRP | 0.096 |
| RRIRWRPPRLPRPRPRPTCKPRP | -0.0078 |

| Sequence | shrunken log2 fold change |
| --- | --- |
| RRIRDRPPRLPRPRPRPVDMPRP | 0.0154 |
| RRIRIRPPRLPRPRPRPHVRPRP | 0.031 |
| RRIRHRPPRLPRPRPRPMFNPRP | -0.608 |
| RRIRMRPPRLPRPRPRPAWPPRP | 0.896 |
| RRIRKRPPRLPRPRPRPFYWPRP | 0.144 |
| RRIRPRPPRLPRPRPRPHRIPRP | -0.414 |
| RRIRPRPPRLPRPRPRPKVIPRP | -0.172 |
| RRIRFRPPRLPRPRPRPGVLPRP | 0.0194 |
| RRIRPRPPRLPRPRPRPEGSPRP | 0.0654 |
| RRIRYRPPRLPRPRPRPLLSPRP | -0.186 |
| RRIRERPPRLPRPRPRPPMRPRP | 0.779 |
| RRIRSRPPRLPRPRPRPMERPRP | -0.0898 |
| RRIRWRPPRLPRPRPRPYYGPRP | -0.0686 |
| RRIRVRPPRLPRPRPRPTQQPRP | 0.346 |
| RRIRWRPPRLPRPRPRPWHLPRP | -0.00636 |
| RRIRMRPPRLPRPRPRPPDCPRP | 0.865 |
| RRIRMRPPRLPRPRPRPETVPRP | 2.2 |
| RRIRRRPPRLPRPRPRPEQTPRP | -0.01 |
| RRIRSRPPRLPRPRPRPIKKPRP | 0.234 |
| RRIRTRPPRLPRPRPRPHGHPRP | -0.136 |
| RRIRARPPRLPRPRPRPGYKPRP | -0.268 |
| RRIRSRPPRLPRPRPRPTMMPRP | -0.253 |

| Sequence | shrunken log2 fold change |
| --- | --- |
| RRIRARPPRLPRPRPRPENTPRP | 0.397 |
| RRIRFRPPRLPRPRPRPQTMPRP | -0.144 |
| RRIRPRPPRLPRPRPRPIANPRP | -0.12 |
| RRIRKRPPRLPRPRPRPEWSPRP | 0.0885 |
| RRIRDRPPRLPRPRPRPQEEPRP | -0.0321 |
| RRIRWRPPRLPRPRPRPSFKPRP | -0.226 |
| RRIRIRPPRLPRPRPRPYREPRP | -0.0673 |
| RRIRCRPPRLPRPRPRPHHMPRP | -1.36 |
| RRIRYRPPRLPRPRPRPHINPRP | -0.806 |
| RRIRHRPPRLPRPRPRPRENPRP | 0.0589 |
| RRIRERPPRLPRPRPRPLVDPRP | -0.135 |
| RRIRVRPPRLPRPRPRPCIAPRP | -0.298 |
| RRIRIRPPRLPRPRPRPDSQPRP | -0.0342 |
| RRIRMRPPRLPRPRPRPWPMPRP | 0.304 |
| RRIRKRPPRLPRPRPRPCLAPRP | 0.433 |
| RRIRNRPPRLPRPRPRPKVVPRP | 0.0279 |
| RRIRSRPPRLPRPRPRPMHKPRP | -0.112 |
| RRIRWRPPRLPRPRPRPEENPRP | -0.0122 |
| RRIRGRPPRLPRPRPRPMITPRP | 0.24 |
| RRIRARPPRLPRPRPRPDWRPRP | 0.146 |
| RRIRWRPPRLPRPRPRPFLKPRP | -0.4 |
